Test results: PMC13397619

B1: NLV3 TCR beta chain (CDR3β only) (parent)
chain: ASSPTGGSPSPLH
partner: MLVPMVATV
B2: NLV3 TCR beta chain (CDR3β only) (parent)
chain: ASSPTGGSPSPLH

Variants of: B1
Assay: T-Switch: Jurkat TCRβ−/− cells expressing a CDR3 saturation-mutagenesis library, stained with two peptide-HLA-A*02:01 tetramers (original and novel peptide) plus anti-CD3, FACS-sorted into four gates, gDNA sequenced
Details: with HLA-A*02:01 with peptide … (NLV 3-1, the original bait), tetramers 1 µg/mL, 30 min on ice, DP and SW gates expanded about 10 days between rounds ('two to three rounds of selection' in the Methods), gate SP: higher = more of the variant in the gate that binds the original peptide and not the novel one = retained original binding. Fold enrichment of the CDR3 variant in one FACS gate of a two-tetra, unresolved parent, parent is a CDR3 fragment, scale: fold enrichment, numbering: sequential-on-construct, sequence …
[…] (CDR3 as printed); S10W derived by comparing it with the table's wild-type CDR3 ASSPTGGSPSPLH was tested, and the enrichment was 0. For […] (CDR3 as printed); A1Q derived by comparing it with the table's wild-type CDR3 ASSPTGGSPSPLH, the enrichment was 0. Variant […] (CDR3 as printed); P4K derived by comparing it with the table's wild-type CDR3 ASSPTGGSPSPLH has an enrichment of 0. Work on […] (CDR3 as printed); L12H derived by comparing it with the table's wild-type CDR3 ASSPTGGSPSPLH yielded an enrichment of 0. Variant […] (CDR3 as printed); S10N derived by comparing it with the table's wild-type CDR3 ASSPTGGSPSPLH has an enrichment of 0. Variant […] (CDR3 as printed); H13K derived by comparing it with the table's wild-type CDR3 ASSPTGGSPSPLH has an enrichment of 3.5. Variant […] (CDR3 as printed); G6R derived by comparing it with the table's wild-type CDR3 ASSPTGGSPSPLH has an enrichment of 0. Variant […] (CDR3 as printed); G6Q derived by comparing it with the table's wild-type CDR3 ASSPTGGSPSPLH has an enrichment of 0. […] (CDR3 as printed); S3V derived by comparing it with the table's wild-type CDR3 ASSPTGGSPSPLH gave an enrichment of 0. Work on […] (CDR3 as printed); H13C derived by comparing it with the table's wild-type CDR3 ASSPTGGSPSPLH yielded an enrichment of 6.06. […] (CDR3 as printed); S8F derived by comparing it with the table's wild-type CDR3 ASSPTGGSPSPLH showed an enrichment of 0. Work on […] (CDR3 as printed); A1F derived by comparing it with the table's wild-type CDR3 ASSPTGGSPSPLH yielded an enrichment of 0. In the case of […] (CDR3 as printed); P11T derived by comparing it with the table's wild-type CDR3 ASSPTGGSPSPLH, the enrichment is reported as 0. […] (CDR3 as printed); S2F derived by comparing it with the table's wild-type CDR3 ASSPTGGSPSPLH was tested, and the enrichment was 3.1. With […] (CDR3 as printed); T5H derived by comparing it with the table's wild-type CDR3 ASSPTGGSPSPLH the enrichment was 1.12. […] (CDR3 as printed); P9C derived by comparing it with the table's wild-type CDR3 ASSPTGGSPSPLH was tested, and the enrichment was 0. With […] (CDR3 as printed); T5K derived by comparing it with the table's wild-type CDR3 ASSPTGGSPSPLH the enrichment was 0. […] (CDR3 as printed); T5N derived by comparing it with the table's wild-type CDR3 ASSPTGGSPSPLH was tested, and the enrichment was 0. For […] (CDR3 as printed); A1H derived by comparing it with the table's wild-type CDR3 ASSPTGGSPSPLH, the enrichment was 0. With […] (CDR3 as printed); T5F derived by comparing it with the table's wild-type CDR3 ASSPTGGSPSPLH the enrichment was 12.8. Work on […] (CDR3 as printed); H13T derived by comparing it with the table's wild-type CDR3 ASSPTGGSPSPLH yielded an enrichment of 5.47. […] (CDR3 as printed); P9R derived by comparing it with the table's wild-type CDR3 ASSPTGGSPSPLH showed an enrichment of 0. With […] (CDR3 as printed); P4N derived by comparing it with the table's wild-type CDR3 ASSPTGGSPSPLH the enrichment was 1.25. […] (CDR3 as printed); S2Y derived by comparing it with the table's wild-type CDR3 ASSPTGGSPSPLH was tested, and the enrichment was 0. […] (CDR3 as printed); P11Y derived by comparing it with the table's wild-type CDR3 ASSPTGGSPSPLH showed an enrichment of 1.78. […] (CDR3 as printed); L12R derived by comparing it with the table's wild-type CDR3 ASSPTGGSPSPLH was tested, and the enrichment was 0. With […] (CDR3 as printed); P9N derived by comparing it with the table's wild-type CDR3 ASSPTGGSPSPLH the enrichment was 0. […] (CDR3 as printed); P4A derived by comparing it with the table's wild-type CDR3 ASSPTGGSPSPLH was tested, and the enrichment was 1.98. Variant […] (CDR3 as printed); G7F derived by comparing it with the table's wild-type CDR3 ASSPTGGSPSPLH has an enrichment of 0. Variant […] (CDR3 as printed); L12S derived by comparing it with the table's wild-type CDR3 ASSPTGGSPSPLH has an enrichment of 1.12. […] (CDR3 as printed); A1E derived by comparing it with the table's wild-type CDR3 ASSPTGGSPSPLH gave an enrichment of 0. In the case of […] (CDR3 as printed); P4Y derived by comparing it with the table's wild-type CDR3 ASSPTGGSPSPLH, the enrichment is reported as 1.03. Variant […] (CDR3 as printed); T5Q derived by comparing it with the table's wild-type CDR3 ASSPTGGSPSPLH has an enrichment of 0. In the case of […] (CDR3 as printed); G6E derived by comparing it with the table's wild-type CDR3 ASSPTGGSPSPLH, the enrichment is reported as 0. […] (CDR3 as printed); P11W derived by comparing it with the table's wild-type CDR3 ASSPTGGSPSPLH was tested, and the enrichment was 0. For […] (CDR3 as printed); G7Y derived by comparing it with the table's wild-type CDR3 ASSPTGGSPSPLH, the enrichment was 4.27. For […] (CDR3 as printed); H13I derived by comparing it with the table's wild-type CDR3 ASSPTGGSPSPLH, the enrichment was 11.3. […] (CDR3 as printed); H13R derived by comparing it with the table's wild-type CDR3 ASSPTGGSPSPLH was tested, and the enrichment was 4.99. With […] (CDR3 as printed); P4E derived by comparing it with the table's wild-type CDR3 ASSPTGGSPSPLH the enrichment was 3.03.

Variants of: B2
Assay: as above
Details: with both tetramers (double-negative gate, binds neither): HLA-A*02:01 with … and with …, tetramers 1 µg/mL, 30 min on ice, SP, DP and SW gates expanded about 10 days between rounds ('two to three rounds of selection' in the Methods), gate DN: OPPOSITE: higher = more of the variant in the gate that binds neither peptide = LESS binding (or no expression; inferred). Fold enrichment of the CDR3 variant in one FACS gate of a two-tetram, unresolved parent, parent is a CDR3 fragment, scale: fold enrichment, numbering: sequential-on-construct, sequence starts at 1
For […] (CDR3 as printed); T5P derived by comparing it with the table's wild-type CDR3 ASSPTGGSPSPLH, the enrichment was 1.04. […] (CDR3 as printed); T5W derived by comparing it with the table's wild-type CDR3 ASSPTGGSPSPLH gave an enrichment of 0.

Same assay, conditions: with both tetramers (double-positive gate): HLA-A*02:01 with … and with …, tetramers 1 µg/mL, 30 min on ice, SP, DP and SW gates expanded about 10 days between rounds ('two to three rounds of selection' in the Methods), gate DP: higher = more of the variant in the gate that binds both peptides. Fold enrichment of the CDR3 variant in one FACS gate of a two-tetramer stain. SP/DP/SW gates were expanded and re-sorted bef, unresolved parent, parent is a CDR3 fragment, scale: fold enrichment, numbering: sequential-on-construct, sequence starts at 1
For […] (CDR3 as printed); T5P derived by comparing it with the table's wild-type CDR3 ASSPTGGSPSPLH, the enrichment was 0. For […] (CDR3 as printed); T5W derived by comparing it with the table's wild-type CDR3 ASSPTGGSPSPLH, the enrichment was 0.
